According to FireProtDB (doi:10.1006/jmbi.2001.4521):

Settings: Drosophila melanogaster, pH 6, Thermal, CD, phosphate 50 mM, Na2SO4 0.4 M, whole UniProt chain shown

B1: Growth factor receptor-bound protein 2 wild type, Q08012 (protein)
chain: MEAIAKHDFSATADDELSFRKTQILKILNMEDDSNWYRAELDGKEGLIPSNYIEMKNHDWYYGRITRADAEKLLSNKHEGAFLIRISESSPGDFSLSVKCPDGVQHFKVLRDAQSKFFLWVVKFNSLNELVEYHRTASVSRSQDVKLRDMIPEEMLVQALYDFVPQESGELDFRRGDVITVTDRSDENWWNGEIGNRKGIFPATYVTPYHS
In the case of B1, the unfolding free energy (25 °C) is reported as 7.53 kJ/mol and the Tm is reported as 63.7 °C.
